Test results reported in US10273305B2, “Bispecific CXCR4-CD4 polypeptides with potent anti-HIV activity” (Ablynx N.V., priority 2015, dated 2019).

B1: 3F11: anti-CD4 Nanobody, SEQ ID NO: 20 (protein)
VHH: EVQLVESGGGSVQPGGSLTLSCGTSGRTFNVMGWFRQAPGKEREFVAAVRWSSTGIYYTQYADSVKSRFTISRDNAKNTVYLEMNSLKPEDTAVYYCAADTYNSNPARWDGYDFRGQGTQVTVSS
modifications: Nanobody Sequence

Experiments:
[1] = test system: dual-tropic R5/X4 HIV-1 HE; test: HIV-1 HE infection of PBMCs, p24; format: cell-based
R5 SM145 = test: TZM-bl luciferase assay, SM145; format: cell-based, HIV-1; conditions: read-out: IC50 TZM-bl R5 SM145 n = 2
R5 DJ259 = test: TZM-bl luciferase assay, DJ259; format: cell-based, HIV-1; conditions: read-out: IC50 TZM-bl R5 DJ259 n = 2
R5 HIV-1 BaL virus = test: TZM-bl luciferase assay, BaL; format: cell-based; conditions: read-out: IC50 R5 HIV-1 BaL virus in TZM-bl cells
[2] = test system: dual-tropic R5/X4 HIV-1 HE; test: TZM-bl luciferase assay, HE; format: cell-based
[3] = test system: dual-tropic R5/X4 HIV-2 ROD; test: TZM-bl luciferase assay, HIV-2 ROD; format: cell-based
X4 HIV-1 NL4.3 WT = test: TZM-bl luciferase assay, NL4.3 WT; format: cell-based
cynomolgus CD4 = cynomolgus CD4 (Macaca fascicularis, UniProt P79185); test: Binding of 3F11 to cynomolgus CD4+ HSC-F T cells, flow cytometry; conditions: HSC-F T cell line
CXCR4 [4] = target: T1, CXCR4 (Homo sapiens, UniProt P61073); test: CXCL12-AF647 binding inhibition on SupT1 cells by flow cytometry; conditions: T-cells (SUPT-1)
CXCR4 [5] = target: T1, CXCR4; test: Inhibition of SDF-1 induced Ca2+ signaling in U87.CD4.CXCR4 cells (FLIPR); format: cell-based
CXCR4 [6] = target: T1, CXCR4; test: Inhibition of SDF-1 mediated chemotaxis; format: cell-based; conditions: average of 3
Description: As chemoattractant a concentration of 750 pM SDF-1α (R&D Systems) was used on 100,000 cells/well for the Jurkat cell line, and 500,000 cells/well for the MOLM-13 cell line. SDF-1α and serially diluted Nanobody constructs were added to the bottom of a small chemotaxis plate (Neuprobe 106-5) in a total volume of 29 μl. A chemotaxis filter membrane (ChemoTx® Disposibla, pore size 5 μm) was placed on top of the wells, ensuring that the membrane was in contact with the solution in the wells below. A Nanobody dilution (10 μl at 5× the serially diluted final concentration as below the membrane in each well) was added on top of the membrane, followed by 40 μl of cell suspension. The plates were incubated for 3 hours at 37° C. in a humidified incubator (5% CO2). After incubation, the filters were carefully removed and the cells in the well below were resuspended in the existing solution. The complete cell suspension was transferred to the corresponding wells of white polystyrene Costar plates. After this, 30 μl of Cell Titer Glo reagent (Promega G7571) was added to each well, followed by a 10 minute incubation, with shaking in the dark. Luminescence was measured (1 sec/well) using an Envision 2103 Multilabel Reader with emission filter 700 (Perkin Elmer). […]

CD4 [7] = target: T2, CD4 (Homo sapiens, UniProt P01730); test: Flow cytometry binding of purified CD4 Nanobodies to Jurkat and THP-1 cells; conditions: 100 nM Nanobody
Description: Murine Ba/F3 myeloid cells were used as negative control cells. Purified Nanobodies (100 nM) were allowed to bind to 10^5 cells for 30 minutes at 4° C. in a final volume of 100 μl of 10% FBS (Invitrogen, Cat 10270-106) in PBS (Invitrogen #14190). Bound Nanobodies were detected with mouse anti-myc antibody (Serotec, Cat#MCA2200) followed by goat anti-mouse-PE antibody (Jackson #115-115-164). Dead cells percentage population was determined by staining the cells with TOPRO3 (Molecular probes T3605). Using a BD FACS Array Bioanalyzer system, a PE filter 585/42 and a Topro filter 661/16, twenty thousand events were acquired. TOPRO3+ cells were excluded, and the mean channel fluorescence (MCF) was calculated. Expression of CD4 in Jurkat and THP-1 cells was confirmed by using 10 μg/ml of an anti-CD4 monoclonal antibody (Diaclone, clone B-A1 cat#854.030.000). Staining of the cells with anti-myc and/or the goat anti mouse-PE antibodies antibody was performed as negative controls.

HUT-78/HIV-1 NL4.3 = test: HIV-1-mediated cell-cell fusion, HUT-78/NL4.3 with SupT1 cells; conditions: read-out: IC50 cell-cell fusion
HIV-1 X4 NL4.3 strain = test: HIV-1 NL4.3 infection of PHA-stimulated PBMCs, p24 Ag ELISA; format: cell-based
[8] = target: interaction of CD4 with the viral gp120 protein (Homo sapiens, UniProt P01730); test: ELISA-based competition of CD4-gp120 interaction; format: binding; conditions: 500 nM Nanobody; gp120 HIV-1 IIIB
Description: Besides its role on T-cells, CD4 also serves as primary receptor for HIV entry. Therefore purified CD4 Nanobodies were analysed for the capacity to block the interaction of CD4 with the viral gp120 protein. Monovalent His-tagged Nanobodies were purified from periplasmic extracts by affinity and desalting chromatography and used in an ELISA-based competition setup. In short, 1 μg/ml of gp120 HIV-1 IIIB (Immunodiagnostic) was captured by 20 μg/ml of sheep anti-gp120 antibody D7324 (Aalto Bio Reagents) previously coated in 96 well Maxisorp microtiter plates (Nunc) and blocked with 1% casein in PBS. In parallel, 0.5 μg/ml of biotinylated CD4 was incubated with 500 nM of the different purified Nanobodies in 100 μl 0.1% Casein/PBS. After 1 hour, the biotinylated CD4-Nanobody pre-mixes were incubated 1 hour with the captured gp120. Bound biotinylated CD4 was detected using HRP-conjugated Extravidin (Sigma E2886). A blocking mouse anti-CD4 IgG2a antibody (Diaclone, clone B-A1 cat#854.030.000) was used as positive control. Blocking activity was determined as loss of O.D. signal, as compared to wells where no Nanobody was added.

CD4 [9] = target: T2, CD4; test: FACS binding of CD4 Nanobody 3F11 to human cells; conditions: CD8+ T cells isolated from human PBMCs
Description: The EC50 values results are depicted in Table 2.4. […] To confirm the specificity of the anti-CD4 Nanobody, binding of 03F11 was also assessed to cytotoxic CD8^+ T cells isolated from human PBMCs using the CD8 T Cell Isolation Kit (Miltenyi Biotech, Cat. 130-096-495), resulting in 94% purity of CD8^+ cells.

T1 sequence (P61073 whole entry): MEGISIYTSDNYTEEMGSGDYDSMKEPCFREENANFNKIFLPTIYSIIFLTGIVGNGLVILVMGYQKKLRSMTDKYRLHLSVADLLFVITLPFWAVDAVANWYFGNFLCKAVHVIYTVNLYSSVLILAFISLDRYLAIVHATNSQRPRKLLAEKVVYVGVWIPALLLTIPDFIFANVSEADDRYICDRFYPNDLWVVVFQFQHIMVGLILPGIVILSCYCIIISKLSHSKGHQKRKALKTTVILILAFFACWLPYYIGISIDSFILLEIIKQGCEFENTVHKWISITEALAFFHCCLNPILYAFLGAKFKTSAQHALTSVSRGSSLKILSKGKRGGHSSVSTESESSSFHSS
cynomolgus CD4, sequence (P79185 26-458): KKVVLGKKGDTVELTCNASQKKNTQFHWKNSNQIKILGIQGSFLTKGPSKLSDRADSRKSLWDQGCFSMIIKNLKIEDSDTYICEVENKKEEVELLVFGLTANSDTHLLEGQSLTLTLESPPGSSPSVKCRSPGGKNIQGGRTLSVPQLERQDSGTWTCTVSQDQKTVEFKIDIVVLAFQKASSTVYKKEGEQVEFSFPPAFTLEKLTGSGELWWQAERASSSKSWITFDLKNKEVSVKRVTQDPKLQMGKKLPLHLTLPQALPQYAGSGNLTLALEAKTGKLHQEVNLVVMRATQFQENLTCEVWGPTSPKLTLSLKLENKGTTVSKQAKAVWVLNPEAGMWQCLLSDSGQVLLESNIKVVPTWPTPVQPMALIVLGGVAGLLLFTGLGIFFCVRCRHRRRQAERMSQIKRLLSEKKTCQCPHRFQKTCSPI

| Molecule | IC50 dual-tropic R5/X4 HIV-1 HE in PBMCs [1] | IC50 (R5 SM145) | IC50 (R5 DJ259) | IC50 (R5 HIV-1 BaL virus) | activity against R5/X4 HIV-1 HE in TZM-bl cells [2] | activity against R5/X4 HIV-2 ROD in TZM-bl cells [3] | IC50 X4 HIV-1 NL4.3 in TZM-bl cells (X4 HIV-1 NL4.3 WT) | binding to cynomolgus CD4 (cynomolgus CD4) | IC50 of blocking CXCL12AF647 binding to CXCR4 (CXCR4 [4]) | IC50 of CXCL-12-induced Ca2+-signaling inhibition (CXCR4 [5]) | Inhibition of SDF-1a-mediated chemotaxis IC50 MOLM-13 cells (CXCR4 [6]) | binding to CD4 expressed on a cell surface (CD4 [7]) | IC50 (HUT-78/HIV-1 NL4.3) | IC50 HIV-1 NL4.3 in PBMC (HIV-1 X4 NL4.3 strain) | blocking of in vitro interaction of CD4 with gp120 [8] | binding to cytotoxic CD8+ T cells (CD4 [9]) |
| --- | --- | --- | --- | --- | --- | --- | --- | --- | --- | --- | --- | --- | --- | --- | --- | --- |
| maraviroc [AMD14031] | never showed any significant anti-HIV-1 HE activity | 2.82 µM | 7.54 µM | 4.2 µM | did not block | did not block | did not block | – | – | – | – | – | – | – | – | – |
| B1 | not active | – | – | – | – | – | – | cross-reactive to cynomolgus CD4 | did not interfere | no CXCL-12-induced Ca^2+-signaling inhibition | did not have any effect on SDF-1 function | highest binding signal on THP-1 cells | 2.7 µM | weakly active | block | No binding |
